This data set deals with PDGF AB (Homo sapiens) (UniProt P04085+P01127). Briefly: filter. The following applies: 2'-F on all C and U; random starting pool.

For one sequence, Kd results are on record in patent publication US5668264.

As usually defined, the Kd is the constant that tells how readily two partners part at equilibrium. The low end stands for higher affinity, the high end for lower affinity.

Chain of PDGF AB (Homo sapiens) (P01127 82-190, chain 2 of 2, other chains not shown): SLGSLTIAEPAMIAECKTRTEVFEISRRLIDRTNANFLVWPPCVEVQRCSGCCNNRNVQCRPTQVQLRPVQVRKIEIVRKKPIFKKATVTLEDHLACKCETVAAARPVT

In turn, “GGGAGACAAGAAUAACGCUCAANNNNNNNNNNNNNNNNNNNNNNNNNNNNNNNNNNNNNNNNNNNNNNNNNNUUCGACAGGAGGCUCACAACAGGC [random 2'-F pyrimidine RNA pool (50N)]” gave a Kd of 35 nM.
